From publication PMC12140320, “MeCP2 Lactylation Protects against Ischemic Brain Injury by Transcriptionally Regulating Neuronal Apoptosis”

B1: human-Pdcd4 mCpG probe (dsDNA)
DNA 1: GCGCATGCGCCCTCCCGCGCCCCTCCCC
DNA 2: GGGGAGGGGCGCGGGAGGGCGCATGCGC
modifications: 5-methyl-dC at CpG, both strands; printed '(5-Methyl dC)CG' read as mCG to match the unmethylated probe
B2: human-Pla2g6 mCpG probe (dsDNA)
DNA 1: GCGCATGCGCCCTCCCGCGCCCCTCCCC
DNA 2: GGGGAGGGGCGCGGGAGGGCGCATGCGC
modifications: 5-methyl-dC at CpG, both strands; printed sequence identical to human-Pdcd4 probe (possible error in paper)

Target: MeCP2 WT (human) (Homo sapiens, UniProt P51608 1-486)
Sequence (P51608 whole entry): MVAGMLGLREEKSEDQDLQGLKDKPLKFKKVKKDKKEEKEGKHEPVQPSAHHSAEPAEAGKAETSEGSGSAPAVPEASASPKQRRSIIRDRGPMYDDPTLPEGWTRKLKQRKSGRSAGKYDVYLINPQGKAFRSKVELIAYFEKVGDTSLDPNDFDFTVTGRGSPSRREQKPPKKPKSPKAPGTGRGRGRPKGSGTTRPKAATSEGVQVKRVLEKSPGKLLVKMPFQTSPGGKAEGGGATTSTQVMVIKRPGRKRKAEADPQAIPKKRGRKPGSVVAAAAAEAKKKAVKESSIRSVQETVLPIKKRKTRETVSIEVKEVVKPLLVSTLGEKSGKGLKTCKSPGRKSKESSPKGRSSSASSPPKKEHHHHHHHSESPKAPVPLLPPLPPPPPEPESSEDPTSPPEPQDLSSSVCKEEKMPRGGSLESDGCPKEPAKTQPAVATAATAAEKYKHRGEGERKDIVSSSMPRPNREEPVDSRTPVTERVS
Experiment: EMSA; 50-100 nM protein; EMSA: 10 mM HEPES pH 7.6, 50 mM KCl, 1 mM EDTA, 0.05% Triton X-100, 5% glycerol, 1 mM DTT; 50-100 nM protein, 2 nM biotin probe; room temperature 30 min; 6% native PAGE, 0.5x TBE, 4 C
Conditions: protein: recombinant; (Ni resin); label: biotin; blunt

| Binder | binding result |
| --- | --- |
| B1 | binds |
| B2 | binds |
